Assay results: publication PMC6123813 (Communications biology, 2018)

Assays:
[1] = biological target: YSA peptide (synthetic construct); conditions: cited from earlier work
[2] = biological target: m-ephrinA1 (Homo sapiens) (UniProt P20827); conditions: cited from earlier work
[3] = biological target: the molecule itself; assay: FRET or BRET; FSI-FRET (two-photon spectral imaging) between EphA2-mTurq and EphA2-eYFP in the plasma membrane of live HEK293T cells in hypo-osmotic medium; no ligand; dimer to monomers, two-dimensional constants in receptors per μm^2

m-ephrinA1 (Homo sapiens), sequence (P20827 19-182): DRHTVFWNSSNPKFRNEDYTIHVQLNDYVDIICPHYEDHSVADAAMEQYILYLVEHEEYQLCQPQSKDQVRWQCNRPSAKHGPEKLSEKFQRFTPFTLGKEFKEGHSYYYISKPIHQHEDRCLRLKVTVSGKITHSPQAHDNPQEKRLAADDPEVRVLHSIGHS

## EphA2 (from UniProt P29317)
[1]
  Kd: 200 nM
[2]
  Kd: 25 nM

B1: EphA2 L223R/L254R/V255R triple mutant, full-length, tagged at the C-terminus with mTurquoise or eYFP (receptor, UniProt P29317 24-976, looked up)
chain: AQGKEVVLLDFAAAGGELGWLTHPYGKGWDLMQNIMNDMPIYMYSVCNVMSGDQDNWLRTNWVYRGEAERIFIELKFTVRDCNSFPGGASSCKETFNLYYAESDLDYGTNFQKRLFTKIDTIAPDEITVSSDFEARHVKLNVEERSVGPLTRKGFYLAFQDIGACVALLSVRVYYKKCPELLQGLAHFPETIAGSDAPSRATVAGTCVDHAVVPPGGEEPRMHCAVDGEWRRPIGQCLCQAGYEKVEDACQACSPGFFKFEASESPCLECPEHTLPSPEGATSCECEEGFFRAPQDPASMPCTRPPSAPHYLTAVGMGAKVELRWTPPQDSGGREDIVYSVTCEQCWPESGECGPCEASVRYSEPPHGLTRTSVTVSDLEPHMNYTFTVEARNGVSGLVTSRSFRTASVSINQTEPPKVRLEGRSTTSLSVSWSIPPPQQSRVWKYEVTYRKKGDSNSYNVRRTEGFSVTLDDLAPDTTYLVQVQALTQEGQGAGSKVHEFQTLSPEGSGNLAVIGGVAVGVVLLLVLAGVGFFIHRRRKNQRARQSPEDVYFSKSEQLKPLKTYVDPHTYEDPNQAVLKFTTEIHPSCVTRQKVIGAGEFGEVYKGMLKTSSGKKEVPVAIKTLKAGYTEKQRVDFLGEAGIMGQFSHHNIIRLEGVISKYKPMMIITEYMENGALDKFLREKDGEFSVLQLVGMLRGIAAGMKYLANMNYVHRDLAARNILVNSNLVCKVSDFGLSRVLEDDPEATYTTSGGKIPIRWTAPEAISYRKFTSASDVWSFGIVMWEVMTYGERPYWELSNHEVMKAINDGFRLPTPMDCPSAIYQLMMQCWQQERARRPKFADIVSILDKLIRAPDSLKTLADFDPRVSIRLPSTSGSEGVPFRTVSEWLESIKMQQYTEHFMAAGYTAIEKVVQMTNDDIKRIGVRLPGHQKRIAYSLLGLKDQVNTVGIPI
[3]
  stoichiometry N: 2
